Assay results taken from US8466258B2, “Polypeptides, cyclic polypeptides and pharmaceutical comprising thereof for non invasive specific imaging of fibrosis” (INSERM (Institut National de la Santé et de la Recherche …, priority 2008, dated 2013).
Bridge positions count the residues as written; N and C are the ends. Peptide text beside a SMILES is read from it. * marks the point of attachment. Biotin = O=C1N[C@H]2[C@H](CS[C@H]2CCCCC(=O)*)N1

Key:
laminin = laminin (Mus musculus, UniProt P02468+P02469+P19137); test: SPR: laminin binding to collagelin
9O12.2 IgG = test: SPR: 9O12.2 IgG injected over immobilized biotin-collagelin; type: binding; conditions: 9O12.2 IgG 5 μg/ml, competitor 25 μg/ml
Experimental: A Biacore 2000 instrument (GE Healthcare Europe GmbH, Orsay, France) (Université Paris 7, Institut Jacques Monod, Paris, France) was used to characterize the binding properties of the synthesized peptides. Biotinylated peptides (˜20 RU) were covalently coupled to the surface of a SA-sensorchip.
Glycine-HCl (10 mM pH 2.5) was injected for 30 s at 20 μL·min-1 to regenerate the sensorchip between each sample. Sensorgrams were analyzed with the BIA evaluation version 3.1 software. Kinetic constants (kon, koff) were deduced from the analysis of association and dissociation rates at four different IgG concentrations ranging from 1.25 to 10 μg·mL^−1. The dissociation constant KD was calculated from KD=koff/kon. […] In some experiments, the peptide was reduced by DTT on the sensor chip before injection of the IgG. Competition experiments were performed by mixing the IgG with recombinant soluble GPVI (25 μg·mL^−1). Collagen binding to the peptide was analysed by injecting type I equine collagen (Collagen Horm, Nycomed. Germany) (200 μg·mL^−1 in EBS-EP buffer) onto the peptide-coated sensorchip.

[1] = test system: type I equine fibrillar collagen (Horm); test: Solid phase assay on collagen-coated microtitration plates; type: binding; conditions: competitor mixed with collagelin, 50 and 20 μg/mL (3J24.2: 50 μg/mL)

Row | Kd (laminin) [µM] | inhibition of 9O12.2 IgG binding to immobilized biotin-collagelin by competitor (9O12.2 IgG) | inhibition of biotin-collagelin binding to collagen by competitor [1] | Molecule
1 | 18.3 |  |  | CSCC[C@@H]1NC(=O)[C@H](C(C)C)NC(=O)[C@H](CCCNC(=N)N)NC(=O)[C@@H]2CCCN2C(=O)CNC(=O)[C@@H](NC(=O)CNC(=O)[C@H](CO)NC(=O)CNC(=O)[C@H](CO)NC(=O)CCCC[C@@H]2SC[C@@H]3NC(=O)N[C@@H]32)CSSC[C@@H](C(N)=O)NC(=O)[C@@H]2CCCN2C(=O)CNC(=O)[C@H](CCC(=O)O)NC(=O)[C@H](CC(=O)O)NC(=O)[C@H](CC(=O)O)NC(=O)CNC(=O)[C@H](CC(C)C)NC(=O)[C@H](Cc2c[nH]cn2)NC(=O)[C@H](CC(C)C)NC(=O)CNC(=O)[C@H](Cc2c[nH]cn2)NC1=O [collagelin] (Biotin-SGSGCGPRVMHGLHLGDDEGPC-NH2; disulfide 5-22)
2 |  | completely inhibited | completely inhibited | recombinant soluble GPVI: soluble recombinant GPVI-Fc fusion protein (protein, left off: a dimerising Fc or GST, soluble recombinant GPVI-Fc fusion protein) QSGPLPKPSLQALPSSLVPLEKPVTLRCQGPPGVDLYRLEKLSSSRYQDQAVLFIPAMKRSLAGRYRCSYQNGSLWSLPSDQLELVATGVFAKPSLSAQPGPAVSSGGDVTLQCQTRYGFDQFALYKEGDPAPYKNPERWYRASFPIITVTAAHSGTYRCYSFSSRDPYLWSAPSDPLELVVTGTSVTPSRLPTEPPSPVAEFSEATAELTVSFTNEVFTTETSRSITASPKESDSPAGPARQYYTKGN
